Measured values from the FLAb antibody collection.
Where a chain is given by its changes, count along the chain named.

B1: unnamed (protein)
chain 1: EVQLVQSGAEVKKPGATVKISCKVSGYTFTDYYIHWVQQAPGKGLEWMGRVNPDHGDSYYNQKFKDKATITADKSTDTAYMELSSLRSEDTAVYFCARNYLFDHWGQGTLVTVSS
chain 2: DIQMTQSPSSVSASVGDRVTITCKASQDVGTAVAWYQQKPGKAPKLLIYWASIRHTGVPSRFSGSGSGTDFTLTISSLQPEDFATYYCHQFATYTFGGGTKVEIK
B2: unnamed (protein)
chain 1: QVQLQQSGAELVRPGTSVKVSCKASGYAFTNYLIEWVKQRPGQGLEWIGVINPGSGGTNYNEKFKGKATLTADKSSSTAYMQLSSLTSDDSAVYFCARDGPWFAYWGQGTLVTVSA
chain 2: NIVMTQSPKSMSMSVGERVTLTCKASENVVTYVSWYQQKPEQSPKLLIYGASNRYTGVPDRFTGSGSATDFTLTISSVQAEDLADYHCGQGYSYPYTFGGGTKLEIK
B3: unnamed (protein)
chain 1: EVQLLESGGGLVQPGGSLRLSCAASGFTFSSYAMSWVRQAPGKGLEWVSTISSGGSYTSYPDSVKGRFTISRDNSKNTLYLQMNSLRAEDTAVYYCAKQDYAMNYWGQGTLVTVSS
chain 2: DIQMTQSPSSLSASVGDRVTITCKASQDVSTAVAWYQQKPGKAPKLLIYSASYRYTGVPSRFSGSGSGTDFTLTISSLQPEDFATYYCQQHYSTPWTFGGGTKVEIK
B4: unnamed (protein)
chain 1: QVQLVQSGAEVKKPGASVKVSCKASGYIFSNYWIQWVRQAPGQGLEWMGEILPGSGSTEYTENFKDRVTMTRDTSTSTVYMELSSLRSEDTAVYYCARYFFGSSPNWYFDVWGQGTLVTVSS
chain 2: DIQMTQSPSSLSASVGDRVTITCGASENIYGALNWYQQKPGKAPKLLIYGATNLADGVPSRFSGSGSGTDFTLTISSLQPEDFATYYCQNVLNTPLTFGQGTKVEIK
B5: unnamed (protein)
chain 1: EVQLVESGGGLVQPGGSLRLSCAASGFDFSRYWMSWVRQAPGKGLEWIGEINPDSSTINYAPSLKDKFIISRDNAKNSLYLQMNSLRAEDTAVYYCARPDGNYWYFDVWGQGTLVTVSS
chain 2: DIQMTQSPSSLSASVGDRVTITCKASQDVGIAVAWYQQKPGKVPKLLIYWASTRHTGVPDRFSGSGSGTDFTLTISSLQPEDVATYYCQQYSSYPYTFGQGTKVEIK
B6: unnamed (protein)
chain 1: QVQLQESGPGLVKPSQTLSLTCTVSGYSISSDFAWNWIRQPPGKGLEWMGYISYSGNTRYQPSLKSRITISRDTSKNQFFLKLNSVTAADTATYYCVTAGRGFPYWGQGTLVTVSS
chain 2: DIQMTQSPSSMSVSVGDRVTITCHSSQDINSNIGWLQQKPGKSFKGLIYHGTNLDDGVPSRFSGSGSGTDYTLTISSLQPEDFATYYCVQYAQFPWTFGGGTKLEIK
B7: unnamed (protein)
chain 1: QVQLVESGGGVVQPGRSLRLSCAASGFSFSNYGMHWVRQAPGKGLEWVALIWYDGSNEDYTDSVKGRFTISRDNSKNTLYLQMNSLRAEDTAVYYCARWGMVRGVIDVFDIWGQGTVVTVSS
chain 2: DIQMTQSPSSVSASVGDRVTITCRASQGISSWLAWYQHKPGKAPKLLIYAASSLQSGVPSRFSGSGSGTDFTLTISSLQPEDFATYYCQQANSFPWTFGQGTKVEIK
B8: unnamed (protein)
chain 1: EVQLVESGGGLVQPGGSLRLSCAASGFTFSSYNMNWVRQAPGKGLEWVSYISSSSSTIYYADSVKGRFTISRDNAKNSLSLQMNSLRDEDTAVYYCARAYYYGMDVWGQGTTVTVSS
chain 2: B7 chain 2 with S31G, H38Q, L46F, S53T, W96P, Q100G
B9: unnamed (protein)
chain 1: EVQLVESGGGLVQPGGSLRLSCAASGYSFTGHWMNWVRQAPGKGLEWVGMIHPSDSETRYNQKFKDRFTISVDKSKNTLYLQMNSLRAEDTAVYYCARGIYFYGTTYFDYWGQGTLVTVSS
chain 2: DIQMTQSPSSLSASVGDRVTITCRASKTISKYLAWYQQKPGKAPKLLIYSGSTLQSGVPSRFSGSGSGTDFTLTISSLQPEDFATYYCQQHNEYPLTFGQGTKVEIK
B10: unnamed (protein)
chain 1: EVQLVESGGGLVQPGGSLRLSCAVSGFSSTNYHVHWVRQAPGKGLEWMGVIWGDGDTSYNSVLKSRFTISRDTSKNTVYLQMNSLRAEDTAVYYCARQLTHYYVLAAWGQGTLVTVSS
chain 2: DIQMTQSPSSLSASVGDRVTITCRASEDLYYNLAWYQRKPGKAPKLLIYDTYRLADGVPSRFSGSGSGTDYTLTISSLQPEDFASYYCQQYYKFPFTFGQGTKVEIK
B11: unnamed (protein)
chain 1: QVQLVQSGSELKKPGASVKVSCKASGYTFTDNNMDWVRQAPGQGLEWMGDINTRSGGSIYNEEFQDRVIMTVDKSTDTAYMELSSLRSEDTATYHCARRKSYGYYLDEWGEGTLVTVSS
chain 2: DIQMTQSPSSLSASVGDRVTITCKASRNIERQLAWYQQKPGQAPELLIYQASRKESGVPDRFSGSRYGTDFTLTISSLQPEDIATYYCQQYSDPPLTFGGGTKVEIK
B12: unnamed (protein)
chain 1: EVQLLESGGGLVQPGGSLRLSCAASGFTFSSYAMSWVRQAPGKGLEWVSGITGSGGSTYYADSVKGRFTISRDNSKNTLYLQMNSLRAEDTAVYYCAKDPGTTVIMSWFDPWGQGTLVTVSS
chain 2: EIVLTQSPGTLSLSPGERATLSCRASQSVRGRYLAWYQQKPGQAPRLLIYGASSRATGIPDRFSGSGSGTDFTLTISRLEPEDFAVFYCQQYGSSPRTFGQGTKVEIK
B13: unnamed (protein)
chain 1: EVQLVESGGGLVQPGGSLRLSCAASGFTFSRYWMSWVRQAPGKGLEWVANIKQDGSEKYYVDSVKGRFTISRDNAKNSLYLQMNSLRAEDTAVYYCAREGGWFGELAFDYWGQGTLVTVSS
chain 2: B12 chain 2 with S28R, R30S, G31S, R32S, G51D, F87Y, S95L, R97W
B14: unnamed (protein)
chain 1: QVQLVQSGAEVKKPGSSVKVSCKASGGTFSYYWIEWVRQAPGQGLEWMGEILPGSGTTNPNEKFKGRVTITADESTSTAYMELSSLRSEDTAVYYCARADYYGSDYVKFDYWGQGTLVTVSS
chain 2: DIQMTQSPSSLSASVGDRVTITCKASQHVITHVTWYQQKPGKAPKLLIYGTSYSYSGVPSRFSGSGSGTDFTLTISSLQPEDFATYYCQQFYEYPLTFGGGTKVEIK
B15: unnamed (protein)
chain 1: EVQLLQSGPELEKPGASVMISCKASGSSFTGYNMNWVRQNIGKSLEWIGAIDPYYGGTSYNQKFKGRATLTVDKSSSTAYMHLKSLTSEDSAVYYCVSGMEYWGQGTSVTVSS
chain 2: EIVMTQSPATLSVSPGERATLSCRSSQSLVHRNGNTYLHWYLQKPGQSPKLLIHKVSNRFSGVPDRFSGSGSGTDFTLKISRVEAEDLGVYFCSQSTHVPPLTFGAGTKLELK
B16: unnamed (protein)
chain 1: EVQLVESGGGLEQPGGSLRLSCAGSGFTFRDYAMTWVRQAPGKGLEWVSSISGSGGNTYYADSVKGRFTISRDNSKNTLYLQMNSLRAEDTAVYYCAKDRLSITIRPRYYGLDVWGQGTTVTVSS
chain 2: DIVMTQSPLSLPVTPGEPASISCRSSQSLLYSIGYNYLDWYLQKSGQSPQLLIYLGSNRASGVPDRFSGSGSGTDFTLKISRVEAEDVGFYYCMQALQTPYTFGQGTKLEIK
B17: unnamed (protein)
chain 1: EVQLLESGGGLVQPGGSLRLSCAVSGFTFNSFAMSWVRQAPGKGLEWVSAISGSGGGTYYADSVKGRFTISRDNSKNTLYLQMNSLRAEDTAVYFCAKDKILWFGEPVFDYWGQGTLVTVSS
chain 2: not shown
B18: unnamed (protein)
chain 1: QVQLVQSGAEVKKPGASVKVSCKASGYTFTSYDINWVRQATGQGLEWMGWMNPNSGNTGYAQKFQGRVTMTRNTSISTAYMELSSLRSEDTAVYYCARDPYYYYYGMDVWGQGTTVTVSS
chain 2: QSVLTQPPSVSAAPGQKVTISCSGSSSNIENNHVSWYQQLPGTAPKLLIYDNNKRPSGIPDRFSGSKSGTSATLGITGLQTGDEADYYCETWDTSLSAGRVFGGGTKLTVL
B19: unnamed (protein)
chain 1: QVQLVQSGAEVKKPGASVKVSCKASGYTFTDYYMHWVRQAPGQGLEWMGRVNPNRRGTTYNQKFEGRVTMTTDTSTSTAYMELRSLRSDDTAVYYCARANWLDYWGQGTTVTVSS
chain 2: DIQMTQSPSSLSASVGDRVTITCSVSSSVSSIYLHWYQQKPGKAPKLLIYSTSNLASGVPSRFSGSGSGTDFTLTISSLQPEDFATYYCQVYSGYPLTFGGGTKVEIK
B20: unnamed (protein)
chain 1: QVQLKESGPGLVAPSQSLSITCTVSGFSLTDYGVRWIRQPPGKGLEWLGVIWGGGSTYYNSALKSRLSISKDNSKSQVFLKMNSLQTDDTAMYYCAKEKRRGYYYAMDYWGQGTSVTVSS
chain 2: ENVLTQSPAIMSASPGEKVTMTCRASSSVSSSYLHWYQQKSGASPKLWIYSTSNLASGVPARFSGSGSGTSYSLTISSVEAEDAATYYCQQYSGYPLTFGGGTKLEIK

Test: patients with anti-drug antibodies; higher = more immunogenic

Row | Protein | patients with anti-drug antibodies
1 | B1 | 58.6%
2 | B2 | 80%
3 | B3 | 9.4%
4 | B4 | 2%
5 | B5 | 18.5%
6 | B6 | 5%
7 | B7 | 0%
8 | B8 | 1%
9 | B9 | 6.3%
10 | B10 | 8.9%
11 | B11 | 3.5%
12 | B12 | 1%
13 | B13 | 3.3%
14 | B14 | 9%
15 | B15 | 17%
16 | B16 | 4%
17 | B17 | 0%
18 | B18 | 0%
19 | B19 | 0%
20 | B20 | 33.3%
